Assay results taken from US20230151340A1, “PLASTIC DEGRADING FUSION PROTEINS AND METHODS OF USING THE SAME” (Alliance for Sustainable Energy, LLC, priority 2020, published 2023).

B1: Ideonella sakaiensis 201-F6 MHETase (Is MHETase), wild type, Genbank GAP38911.1, C-terminal His tag (DNA SEQ ID NO: 1) (Pseudideonella sakaiensis) (protein)
chain: CAGGGSTPLPLPQQQPPQQEPPPPPVPLASRAACEALKDGNGDMVWPNAATVVEVAAWRDAAPATASAAALPEHCEVSGAIAKRTGIDGYPYEIKFRLRMPAEWNGRFFMEGGSGTNGSLSAATGSIGGGQIASALSRNFATIATDGGHDNAVNDNPDALGTVAFGLDPQARLDMGYNSYDQVTQAGKAAVARFYGRAADKSYFIGCSEGGREGMMLSQRFPSHYDGIVAGAPGYQLPKAGISGAWTTQSLAPAAVGLDAQGVPLINKSFSDADLHLLSQAILGTCDALDGLADGIVDNYRACQAAFDPATAANPANGQALQCVGAKTADCLSPVQVTAIKRAMAGPVNSAGTPLYNRWAWDAGMSGLSGTTYNQGWRSWWLGSFNSSANNAQRVSGFSARSWLVDFATPPEPMPMTQVAARMMKFDFDIDPLKIWATSGQFTQSSMDWHGATSTDLAAFRDRGGKMILYHGMSDAAFSALDTADYYERLGAAMPGAAGFARLFLVPGMNHCSGGPGTDRFDMLTPLVAWVERGEAPDQISAWSGTPGYFGVAARTRPLCPYPQIARYKGSGDINTEANFACAAPP
B2: Comamonas thiooxydans MHETase (putative MHETase, Genbank WP_080747404.1), C-terminal His tag (Comamonas thiooxydans) (protein)
chain: HMFVRNADRAKNCMRAPLRVFPLKDTFSAQCANVSVWITSSVPPLRERHMDRRVTRRDLMQTRILLMLIAATGVAACGGDGGSTPAAQNPPLPLASRAACEAFQGNSNSIAWPHRATVVEVATWHEAEPANATAAATPEHCEISGAIARRTGIDGYPYEIKFRLRMPSEWNGRFFMEGGGGTNGSLSAATGSLGGGQTASALSRNFATIATDGGHDNAVNNNPDALGTVAFGMDPQARIDMGYNSYDQVTQAGKAAVAQFYGRAPDKSYFIGCSEGGREGMMLSQRFPSHYDGIVAGAPGYQLPKAGISGAWTTQSLAPAAVGVDAQNVPLINKAFSDVDLHLLSRGILGTCDALDGLSDGIVNDFRACQAAFDPATALNPDTSQPLQCTGAKTPDCLSAAQVTGIKRAMGGPVDSAGAALYNRWAWDPGMSGLNGTSYNQGWRSWWLGSYASSTNNAQRVNGFSARSWLVDFATPPEPMPVTQVAARMMNFNFDTDPPKIRATSGPFTPSSMEWHGATSTNLAAFRDRGGKLMLYHGMSDAAFSALDTADYYERLGAAMPGAAGFARLFLVPGMNHCSGGPGTDRFDMLTPLVAWVERDKAPDQVSAWAGTPGYFGATARTRPLCPYPQIARYKGSGDINAEASFVCVAPLE

What was measured:
[1] = substrate: O=C(O)c1ccc(C(=O)OCCO)cc1; assay: purified protein, by the assay type; conditions: other: MHET 10-250 μM, 5 nM enzyme, pH 7.5, 30° C., substrate inhibition model
[2] = substrate: O=C(O)c1ccc(C(=O)OCCO)cc1; assay: Michaelis-Menten kinetics of MHETase and variants (substrate inhibition model); assay type: biochemical, Comamonas thiooxydans; conditions: other: MHET 10-250 μM, 5 nM enzyme, pH 7.5, 30° C.

Protein | Km [1] [µM] | Km [2] [µM] | Vmax [2] [µM/min] | kcat/Km [2] [M⁻¹ s⁻¹]
B1 | 23.17 ± 1.65 | – | – | –
B2 | – | 174.70 ± 4.75 | 12.2 | 230000
